Reference: patent US20120328512A1 (BRACCO IMAGING S P A, published 2012)
Bridge positions count the residues as written; N and C are the ends. Square brackets hold non-standard residues; d marks the D form. Phe(4-F) = N[C@@H](Cc1ccc(F)cc1)C(=O)O; Cha = N[C@@H](CC1CCCCC1)C(=O)O; AEEA = NCCOCCOCC(=O)O

B1: Seq016-P (peptide)
peptide: Ac-GWQPCPWESWTFCWDPGGGK-NH2
modifications: disulfide 5-13
B2: Seq018-P (peptide)
peptide: Ac-WQPCPWESWT[Cha]CWDPGGGK-NH2
modifications: disulfide 4-12
B3: Seq019-P (peptide)
peptide: Ac-WQPCPWESWT[Phe(4-F)]CWDPGGGK-NH2
modifications: disulfide 4-12
B4: Seq000 (peptide)
peptide: WQPCPWESWTFCWDPGGGK
modifications: N-terminal acetyl (Ac-); C-terminal amide (-NH2); disulfide between the two C* cysteines
notes: also called comparative peptide
B5: Seq024-PL1 (peptide)
peptide: Ac-SGSGSGSGWQPCPWESWTFCWDPGGGK-NH2
modifications: disulfide 12-20; not fully specified (residue 27); printed as Ac-SGSGSGSGWQPC*PWESWTFC*WDPGGGK(DSPE-PG4-Glut)-NH2
B6: Seq005-PL5 (peptide)
peptide: Ac-WQPCPAESWTFCWDPGAGSGK-NH2
modifications: disulfide 4-12; not fully specified (residue 21)
notes: Linker GAGSGK
B7: Seq023-PL1 (peptide)
peptide: H-RWQPCPWESWTFCWDPGGGK-NH2
modifications: disulfide 5-13; not fully specified (residue 20); printed as RWQPC*PWESWTFC*WDPGGGK(DSPE-PG4-Glut)-NH2
B8: Seq016-PL1 (peptide)
peptide: Ac-GWQPCPWESWTFCWDPGGGK-NH2
modifications: disulfide 5-13; not fully specified (residue 20); printed as Ac-GWQPC*PWESWTFC*WDPGGGK(DSPE-PG4-Glut)-NH2
B9: Seq005-PL4 (peptide)
peptide: Ac-WQPCPAESWTFCWDPGSAGSK-NH2
modifications: disulfide 4-12; not fully specified (residue 21)
notes: Linker GSAGSK
B10: Seq005-PL1 (peptide)
peptide: Ac-WQPCPAESWTFCWDPGGGK-NH2
modifications: disulfide 4-12; not fully specified (residue 19); printed as Ac-WQPC*PAESWTFC*WDPGGGK(DSPE-PG4-Glut)-NH2
B11: Seq017-PL1 (peptide)
peptide: Ac-SGSG[AEEA]WQPCPWESWTFCWDPGGGK-NH2
modifications: disulfide 9-17; not fully specified (residue 24); printed as Ac-SGSGJWQPC*PWESWTFC*WDPGGGK(DSPE-PG4-Glut)-NH2

Target: DDE
Test: competition fluorescence polarization: unlabeled peptide against Seq000-CF5 tracer on DDE; n = 2

For B1, which Rel IC50 (ratio to the reference peptide) is on record?
Its Rel IC50 (ratio to the reference peptide) is 1.04.

B2 was tested. Which Rel IC50 (ratio to the reference peptide) did it give?
The Rel IC50 (ratio to the reference peptide) was 0.494.

How did the Rel IC50 (ratio to the reference peptide) turn out when B3 was run?
Its Rel IC50 (ratio to the reference peptide) is 0.601.

Target: T1, DDE
T1 chain 1: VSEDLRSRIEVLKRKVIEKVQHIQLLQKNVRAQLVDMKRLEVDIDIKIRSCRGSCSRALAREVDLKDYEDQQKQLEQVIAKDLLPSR
T1 chain 2: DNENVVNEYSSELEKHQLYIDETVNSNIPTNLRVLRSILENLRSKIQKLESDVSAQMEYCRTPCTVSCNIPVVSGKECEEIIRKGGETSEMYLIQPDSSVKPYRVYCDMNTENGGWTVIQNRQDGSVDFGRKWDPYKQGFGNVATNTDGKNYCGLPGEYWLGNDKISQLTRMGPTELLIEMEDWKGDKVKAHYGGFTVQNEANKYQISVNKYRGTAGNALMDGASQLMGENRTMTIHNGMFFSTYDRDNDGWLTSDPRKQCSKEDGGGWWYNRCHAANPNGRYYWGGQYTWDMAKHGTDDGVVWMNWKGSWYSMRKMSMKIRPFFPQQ
T1 chain 3: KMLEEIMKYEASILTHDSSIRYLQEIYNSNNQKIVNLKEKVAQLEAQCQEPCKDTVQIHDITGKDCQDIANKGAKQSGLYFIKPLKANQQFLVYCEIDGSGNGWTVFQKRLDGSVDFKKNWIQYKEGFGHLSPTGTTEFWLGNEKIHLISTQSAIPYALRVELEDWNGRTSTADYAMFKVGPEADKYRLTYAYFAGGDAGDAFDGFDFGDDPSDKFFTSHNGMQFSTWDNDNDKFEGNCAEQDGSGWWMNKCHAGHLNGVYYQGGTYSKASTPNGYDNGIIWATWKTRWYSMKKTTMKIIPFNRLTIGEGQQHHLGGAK
T1 chain 4: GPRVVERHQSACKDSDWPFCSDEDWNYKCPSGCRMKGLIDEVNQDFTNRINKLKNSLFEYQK
T1 chain 5: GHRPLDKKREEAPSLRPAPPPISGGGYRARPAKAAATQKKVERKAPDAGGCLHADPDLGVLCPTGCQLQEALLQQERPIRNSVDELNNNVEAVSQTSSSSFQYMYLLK
T1 chain 6: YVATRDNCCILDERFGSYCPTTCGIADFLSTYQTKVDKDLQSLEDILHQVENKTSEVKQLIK
Test: competition fluorescence polarization on DDE; this is the reference peptide, 1 by definition

Which “Rel IC50” value does the source give for B4 here?
The value was 1 ratio to the reference peptide.

Target: T2, fibrin (human fibrinogen clotted with human thrombin on glass coverslips) (human, UniProt P02671 36-629; P02675 45-491; P02679 27-437, limits assumed)
T2 construct: also called fibrin-coated coverslips
T2 sequence (looked up) 1: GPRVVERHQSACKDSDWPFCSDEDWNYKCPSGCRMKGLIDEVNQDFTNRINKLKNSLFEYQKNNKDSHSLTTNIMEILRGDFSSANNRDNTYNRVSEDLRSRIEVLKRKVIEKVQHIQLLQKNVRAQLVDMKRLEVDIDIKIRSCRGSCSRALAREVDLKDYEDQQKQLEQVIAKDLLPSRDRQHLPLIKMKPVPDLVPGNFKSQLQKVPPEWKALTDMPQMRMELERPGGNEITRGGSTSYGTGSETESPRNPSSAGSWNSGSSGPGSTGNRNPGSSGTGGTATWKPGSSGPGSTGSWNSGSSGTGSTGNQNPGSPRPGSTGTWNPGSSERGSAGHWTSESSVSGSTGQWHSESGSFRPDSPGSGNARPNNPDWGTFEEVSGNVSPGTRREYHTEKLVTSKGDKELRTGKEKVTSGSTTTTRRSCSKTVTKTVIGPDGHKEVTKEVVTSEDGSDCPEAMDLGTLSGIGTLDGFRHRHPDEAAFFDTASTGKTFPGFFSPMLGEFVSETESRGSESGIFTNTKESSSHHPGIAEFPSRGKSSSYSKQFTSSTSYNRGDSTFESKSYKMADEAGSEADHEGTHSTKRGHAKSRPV
T2 sequence (looked up) 2: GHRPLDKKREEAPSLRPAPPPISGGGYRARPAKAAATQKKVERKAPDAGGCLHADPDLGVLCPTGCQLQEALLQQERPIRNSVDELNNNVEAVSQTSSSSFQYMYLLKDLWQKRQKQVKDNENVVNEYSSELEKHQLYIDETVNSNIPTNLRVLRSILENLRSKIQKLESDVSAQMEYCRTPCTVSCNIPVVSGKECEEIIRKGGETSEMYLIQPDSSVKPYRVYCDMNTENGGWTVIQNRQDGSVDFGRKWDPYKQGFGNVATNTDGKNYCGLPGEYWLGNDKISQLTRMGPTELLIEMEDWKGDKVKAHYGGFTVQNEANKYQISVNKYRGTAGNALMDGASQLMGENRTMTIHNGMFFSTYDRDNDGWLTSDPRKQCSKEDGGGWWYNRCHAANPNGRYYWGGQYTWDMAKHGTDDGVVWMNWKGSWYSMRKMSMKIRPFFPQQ
T2 sequence (looked up) 3: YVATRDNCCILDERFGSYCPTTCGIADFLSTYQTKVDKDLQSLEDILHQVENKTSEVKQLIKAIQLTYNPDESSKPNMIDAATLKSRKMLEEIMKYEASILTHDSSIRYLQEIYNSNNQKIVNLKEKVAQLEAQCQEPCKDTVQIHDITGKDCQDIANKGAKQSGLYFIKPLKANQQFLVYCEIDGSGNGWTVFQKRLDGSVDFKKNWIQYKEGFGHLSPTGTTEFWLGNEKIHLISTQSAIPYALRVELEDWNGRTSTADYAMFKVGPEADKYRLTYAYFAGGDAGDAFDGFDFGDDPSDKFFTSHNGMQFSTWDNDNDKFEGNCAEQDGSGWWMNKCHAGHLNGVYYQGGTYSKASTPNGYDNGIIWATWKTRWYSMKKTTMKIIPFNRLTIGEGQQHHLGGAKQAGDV
Test: flow chamber test of targeted microvesicles on fibrin-coated coverslips
Method: Five mL of a solution of BSA 1% w/v in PBS pH 7.4 were added into a 60 mm Petri Dish containing one coverslip, and incubated at 37° C. for 15 min. Then the coverslip was washed three times with 5 ml of Tween 80/PBS (0.1%, v:v). Twenty five μL of human thrombin solution at 5 U/mL were added per mL of human fibrinogen solution (0.5 mg/mL in 50 mM sodium phosphate, NaCl 280 mM, pH 7.4) and delicately mixed. Five mL of this solution were immediately distributed in each Petri dish. The coverslips were incubated for one hour at 37° C. and then dried overnight at 45° C.
Binding studies of targeted microvesicles were carried out using a parallel-plate flow chamber (FCS2, Bioptech Inc., Butler, Pa., USA) with a chamber gasket of 0.25 mm in thickness, with a customized adapter for upside-down chamber inversion. The coated coverslip was inserted as a plate of the flow chamber. Gas-filled Microvesicles (5×10⁶ bubbles/mL in 50% human plasma in PBS) were drawn through the flow chamber using an adjustable infusion pump (Auto Syringe® AS50 Infusion Pump, Baxter, Deerfield, Ill., USA) with a 60 mL syringe (Terumo). The pump flow rate was adjusted to 1 mL/min to obtain the desired shear rate of about 114 s⁻¹. After 10 minutes, the flow was stopped and pictures were taken randomly on different positions on the coverslip (on surfaces of about 0.025 mm²) using a 40× objective and a CCD monochrome camera (F-View II, Soft Imaging Systems, Germany) connected to an inverted Olympus IX 50 microscope. The number of microvesicles on each picture was determined, averaged with respect to the total number of pictures and the obtained value was then divided by ten (to obtain the “slope”, i.e. the average amount of bound microvesicles per minute).

Does B5 bind?
Result: binds

Does B6 bind?
Result: binds

Does B7 bind?
Result: binds

Does B8 bind?
Result: binds

Does B9 bind?
Result: binds

Does B10 bind?
Result: binds

Does B11 bind?
Result: binds
